Test results reported in patent US20110171233A1 (RIBOVAX BIOTECHNOLOGIES S A, published 2011).

B1: 37B7 antibody (antibody, V domains shown)
VH: QVQLVQSGGEVKKPGASVKVSCKASGYTFTSSGINWVRQAPGQGLEWMGWINTYNGNTKYAQRLQGRVTMTTDTSTDTAYMELRSLRSDDTAVYYCARDGLNWGWGDYWGQGTLVTVSS
VL: TQSPSTLSASVGDRVIITCRASQSISSWLAWYQQKPGKAPKLLIYKASSLESGVPSRFSGSGSGTEFTLTISSLQPDDFASYYCQQCKGYPYTFGQGTKLEIKR
notes: also called antibody secreted by the 37B7 subculture
B2: 8C10 antibody (antibody, V domains shown)
VH: EVQLVQSGAEVKKPGESLKISCKGSGYTFANYWIAWVRQMPGKGLEWMGIIYPGDSDTRYSPSFQGQVTISADKSFHTVYLQWSSLKASDTAIYFCASTSYYDFWSGYHRGREHYYYGMEVWGQGTTVIVSS
VL: TQSPATLSLSPGERVTLSCRASQSVYNYLAWYQQKPGQAPRLLIYDASNRATGIPARFSGSGSGTDFTLTISSLEPEDFAVYYCQLRRGTFGQGTKVEIKR

What was measured:
[1] = biological target: T1, recombinant autologous interstrain fusion antigen CG3 (hCMV strain AD169; hCMV strain Towne, UniProt P06473 27-84; P13201 27-84); assay: ELISA of the subculture supernatant on the gB recombinant antigen (CG3)
T1 construct: domain: gB Antigenic Domain 2 (AD2); Antigen of the commercial gB(AD2) ELISA (Biotest, Cat. No. 807035; Rothe M et al., 2001); also called CG3 antigen; gB(AD2)

[2] = biological target: hCMV envelope glycoprotein B (gB) of hCMV strain AD169 (hCMV strain AD169, UniProt P06473 32-906); assay: cell-based or functional assay
[3] = biological target: hCMV envelope glycoprotein B (gB) of hCMV strain VR1814 (hCMV strain VR1814); assay: cell-based or functional assay

Row | Binder | binding result [1] | hCMV neutralizing activity, dose-response, HELF cells with hCMV strain AD169 (1,000 PFU/reaction), IC50 [2] | hCMV neutralizing activity, dose-response, HUVEC cells with hCMV strain VR1814 (1,000 PFU/reaction), IC50 [3]
1 | B1 | no binding | – | –
2 | B2 | – | 0.82 µg/mL | 0.67 µg/mL
